In assay [1] the target is T1, Wild-type ubiquitin (UniProt P0CG48 1-76). Description: NMR titration.
The target of assay [2] is T1, Wild-type ubiquitin. Description: NMR titration. The source holds these as a separate data set.

Like-named read-outs stand apart in the source and are kept apart here.

B1: Full-length E2-25K (enzyme, UniProt P61086 1-200, looked up)
chain: MANIAVQRIKREFKEVLKSEETSKNQIKVDLVDENFTELRGEIAGPPDTPYEGGRYQLEIKIPETYPFNPPKVRFITKIWHPNISSVTGAICLDILKDQWAAAMTLRTVLLSLQALLAAAEPDDPQDAVVANQYKQNPEMFKQTARLWAHVYAGAPVSSPEYTKKIENLCAMGFDRNAVIVALSSKSWDVETATELLLSN
Regarding B1, in assay [1], the Kd (usually the constant that tells how readily two partners part at equilibrium) is about 1000 µM.

As to GAPVSSPEYTKKIENLCAMGFDRNAVIVALSSKSWDVETATELLLSN (domain or fragment, UniProt P61086 154-200, looked up) [E2-25K UBA domain (residues G154-N200)], in assay [2], the Kd was about 1200 µM.

Source of the values: paper PMC3086721 (Biochemical and biophysical research communications, 2011).
